Like-named read-outs stand apart in the source and are kept apart here.
Tests used:
[1] = molecular target: SARS-CoV-2 spike protein WT (SARS-CoV-2 (WT)) (UniProt P0DTC2)
[2] = molecular target: SARS-CoV-2 spike protein WT (SARS-CoV-2 (WT)) (UniProt P0DTC2); test: competition ELISA
[3] = molecular target: SARS-CoV-2 spike protein WT (SARS-CoV-2 (WT)) (UniProt P0DTC2); remark: listed apart in the source
[4] = molecular target: SARS-CoV-2 spike protein WT (SARS-CoV-2 (WT)) (UniProt P0DTC2); remark: listed apart in the source

| Sequence | Kd [1] [nM] | binding signal (% spike still bound to hACE2) [2] | Kd [3] [nM] | Kd [4] [nM] |
| --- | --- | --- | --- | --- |
| AGGCGGGTTCCTAGACTTGTACTCAGCCTTTTTTTTTTTTTTTTCGCAGCACCCAAGAACAAGGACTGCTTAGGATTGCGATAGGTTCGG [S2A2C1-T15-S1B6C3] | 61.4 | – | – | – |
| CGCAGCACCCAAGAACAAGGACTGCTTAGGATTGCGATAGGTTCGGAAAAAAAAAAAAAAAAGGCGGGTTCCTAGACTTGTACTCAGCCT [S1B6C3-A15-S2A2C1] | – | 12 | – | – |
| CGCAGCACCCAAGAACAAGGACTGCTTAGGATTGCGATAGGTTCGGAAAAAAGGCGGGTTCCTAGACTTGTACTCAGCCT [S1B6C3-A5-S2A2C1] | – | 8 | 35.8 | 34.6 |
| CGCAGCACCCAAGAACAAGGACTGCTTAGGATTGCGATAGGTTCGGTTTTTTTTTTTTTTTAGGCGGGTTCCTAGACTTGTACTCAGCCT [S1B6C3-T15-S2A2C1] | 46.1 | 24 | – | – |

— article PMC9330529
